Tests used:
complement component C3 [1] = target: T1, complement component C3 (human, UniProt P01024 23-1663); assay: cell-based or functional assay
complement component C3 [2] = target: T1, complement component C3; assay: cell-based or functional assay; remark: listed apart in the source

Binder | activity relative to CA28 on a molar basis; classical complement inhibition assay (complement component C3 [1]) | IC50; classical complement inhibition assay (C3b deposition ELISA, human plasma) (complement component C3 [2]) | IC50 on a molar basis (calculated for 7.5 CA28 moieties per molecule); classical complement inhibition assay (complement component C3 [1]) | IC50 as a function of CA28 concentration (per peptide moiety); classical complement inhibition assay (complement component C3 [2])
ICVXQDWGAHRCTK (not fully specified; N-terminal acetyl; 1-methyl-tryptophan at position 4; disulfide Cys2-Cys12; AEEAc (8-amino-3,6-dioxaoctanoyl) between Thr13 and Lys; linear monofunctional 30 kD PEG (SUNBRIGHT ME-300GS) on the Lys side chain; C-terminal amide) [CA28-AEEAc-Lys-(PEG30k)] | ~30 % of the activity of CA28 | 1260 nM | – | –
ICVXQDWGAHRCTK (not fully specified; N-terminal acetyl; 1-methyl-tryptophan at position 4; disulfide Cys2-Cys12; AEEAc (8-amino-3,6-dioxaoctanoyl) between Thr13 and Lys; linear monofunctional 40 kD methoxy-PEG (SUNBRIGHT ME-400GS) on the Lys side chain; C-terminal amide) [CA28-AEEAc-Lys-(PEG40k)] | ~30 % of the activity of CA28 | 1290 nM | – | –
ICVXQDWGAHRCTK (not fully specified; N-terminal acetyl; 1-methyl-tryptophan at position 4; disulfide Cys2-Cys12; AEEAc between Thr13 and Lys; Lys side chain coupled to one arm of an eight-arm 40 kD PEG (SUNBRIGHT HGEO-400GS); C-terminal amide) [(CA28-AEEAc)8-PEG40k] | – | – | ~260 nM | 1930 nM

— US20250170209A1 (published 2025)
